Biological target: T1, recombinant ECD of EGFR (UniProt P00533 25-645)
T1 construct: Epidermal growth factor receptor, recombinant extracellular domain immobilised for SPR; Source, limits and tags may be told in the Supplemental Methods
Test: SPR; BIAcore S200, room temperature; recombinant ECD of EGFR immobilised on a CM5 chip by amine coupling; purified rCGA injected at 30 μL/min for 60 seconds, dissociation 100 seconds; 1:1 Langmuir binding model
Conditions: both partners purified

B1: recombinant human CGA (glycoprotein hormone α polypeptide), 6×His tag removed (natural protein)
chain: not shown
notes: Glycoprotein hormones alpha chain (CGA), human; CGA ORF in a modified pHL-sec vector, secreted protein; engineered enterokinase site at the C-terminus before the 6×His tag; Made in mammalian cells; Residues of the enterokinase site may be left at the C-terminus after digestion; also called rCGA; α-subunit of glycoprotein hormones; not shown: His6, C-terminal, cleaved
  Kd: 11.8 µM
